From patent US7566535B2, “Enhanced oligonucleotide-mediated nucleic acid sequence alteration” (University of Delaware, priority 2002, dated 2009) come the findings set out here.

Data set [1] relates to pAURHYG(x)eGFP. The data set can be described thus: Hygromycin gene correction in yeast LSY678 with or without trichostatin A.
For data set [2], the system named is CYC1 gene. The data set can be described thus: CYC1 gene repair in diploid yeast strains, growth on glycerol (YPG).
The subject of data set [3] is pAURNeo(−)FlAsH plasmid. The data set can be described thus: FlAsH fluorescence assay of neomycin phosphotransferase gene correction in yeast.
Data set [4] has as its system mutant kanamycin gene in plasmid pK^Sm4021. The experiment in a line: Gene repair of plasmid pK^Sm4021 in yeast cell-free extracts, kan^r/amp^r colony readout in E. coli DH10B.
Data set [5] concerns human β-globin gene in YAC. The data set can be described thus: Dual targeting: second-site editing of β-globin gene in YAC, SNaPshot and sequencing. As to conditions: HU, TSA, RAD51 overexpression.
The subject of data set [6] is pAURHYG(x)eGFP. The data set can be described thus: Strand bias of hygromycin gene correction in rad1 and rad10 yeast mutants.
Where [7] appears, read: YMH51 (wild-type CYC1), 5 μg oligo.
[8] abbreviates: YMH55 with PYNMRE11, 5 μg oligo.
[9] abbreviates: YMH55 with PYNRAD51, 5 μg oligo.
Setting [10] is: YMH55 with PYNRAD52, 5 μg oligo.
The mark [11] stands for this setting: YMH55 with PYNRAD54, 5 μg oligo.
Where [12] appears, read: YMH55 with PYNRAD55, 5 μg oligo.
Setting [13] is: YMH55 with pYN132 (empty vector), 5 μg oligo.
Where [14] appears, read: YMH55 with pYNβ (lambda beta protein expression), 5 μg oligo.

Values joined by “and” are separate entries in the source; they are usually repeats but may differ in a detail not shown here. Equal values may be shown once. In the oligonucleotide strings, read from the 5' end, every base follows the letter of its sugar. An asterisk marks phosphorothioate; unmarked linkages are phosphodiester. Other units and linkages are bracketed, terminal groups are in braces. A string of capitals states the bases alone. d = 2'-deoxy (DNA) Bounds are passed on as bounds.

Turning to `CC(/C=C/C(=O)NO)=C\[C@@H](C)C(=O)c1ccc(N(C)C)cc1` [trichostatin A, reference compound], the entries for the “increase of efficiency of gene alteration” value in data set [1] (50 μg/mL during the recovery period) and in data set [1] (50 μg/mL for four hours prior to electroporation) were no less than 3 fold and “up to several-fold”, respectively.

B1: Cyc1/70NT: modified single-stranded vector targeting the nontranscribed strand of mutant CYC1, three phosphorothioated linkages at each terminus, SEQ ID NO: 22 (nucleic acid)
DNA: dA*dA*dC*dCdTdTdAdTdGdTdGdGdGdCdCdAdCdCdCdTdTdTdTdCdCdAdCdGdGdTdGdTdGdGdCdAdTdTdGdTdAdGdAdCdAdTdCdTdAdGdTdCdTdTdGdAdAdAdAdGdTdGdTdAdGdCdA*dC*dC*dT
In the case of B1, the “No. of YPG Plate Colonies” value in data set [2] (setting [7]) is given as “lawn”; in data set [2] (YMH52, 5 μg oligo), 186; in data set [2] (YMH53, 5 μg oligo), 73; in data set [2] (YMH53 with PYNMRE11 + PYNXRS2), 178; in data set [2] (YMH53 with PYNRAD52 + PYNRAD54), 109; in data set [2] (YMH54, 5 μg oligo), 80. For the same molecule, the “No. of YPG Plate Colonies” value turned out to be 895 in data set [2] (YMH55, 5 μg oligo); 25 in data set [2] (setting [8]); 260 in data set [2] (setting [9]); 108 in data set [2] (setting [10]); 42 in data set [2] (setting [11]); 410 in data set [2] (setting [12]). Also, the “No. of YPG Plate Colonies” value in data set [2] (YMH55 with PYNXRS2, 5 μg oligo) is listed as 22; in data set [2] (setting [13]), 19; in data set [2] (setting [14]), 166. In addition, the C.E. is recorded as 0.47 ×10^−4 in data set [2] (YMH52, 5 μg oligo); 0.21 ×10^−4 in data set [2] (YMH53, 5 μg oligo); 0.28 ×10^−4 in data set [2] (YMH54, 5 μg oligo); 2.99 ×10^−4 in data set [2] (YMH55, 5 μg oligo). For the same molecule, the “Average C.E.” value in data set [2] (YMH53 with PYNMRE11 + PYNXRS2) is reported as 0.322 ×10^−5; in data set [2] (YMH53 with PYNRAD52 + PYNRAD54) it was 0.179 ×10^−5; in data set [2] (YMH53 with pYN132) it was 0.0056 ×10^−5; in data set [2] (setting [8]), 0.04 ×10^−5; in data set [2] (setting [9]), 0.52 ×10^−5; in data set [2] (setting [10]), 0.22 ×10^−5. The “Average C.E.” value in data set [2] (setting [11]) is 0.09 ×10^−5; in data set [2] (setting [12]) it was 0.78 ×10^−5; in data set [2] (YMH55 with PYNXRS2, 5 μg oligo) it was 0.03 ×10^−5; in data set [2] (setting [13]), 0.04 ×10^−5; in data set [2] (setting [14]), 0.32 ×10^−5. The Fold was 57.48 in data set [2] (YMH53 with PYNMRE11 + PYNXRS2); 32.01 in data set [2] (YMH53 with PYNRAD52 + PYNRAD54); 1 in data set [2] (YMH53 with pYN132); 1.1 in data set [2] (setting [8]); 14.8 in data set [2] (setting [9]); 6.2 in data set [2] (setting [10]). Besides, the Fold came to 2.4 in data set [2] (setting [11]); 22.2 in data set [2] (setting [12]); 1.34 in data set [2] (YMH55 with PYNXRS2, 5 μg oligo); 1 in data set [2] (setting [13]); 9.1 in data set [2] (setting [14]).

B2: KanGG: chimeric, RNA-DNA double-hairpin oligonucleotide (SEQ ID NO: 1) correcting the mutant kanamycin gene of pK^Sm4021 (nucleic acid)
chain: GCUAUUCGGCUAGGACUGGGCACAAUUUUTTGTGCCCAGTCGTAGCCGAATAGCCTCTCCUUUUGGAGAG
modifications: chimeric RNA-DNA double hairpin, segment chemistry not given here
For B2, the “corrected cells by green fluorescence (confocal microscopy)” value in data set [3] (LSY678 and LSY378) is given as “many corrected cells”. In addition, the “number of cells exhibiting green fluorescence” value in data set [3] (strain lacking RAD52 relative to LSY678) is given as “significant increase”. The “Relative Frequency kan^r/amp^r” value was 1.89 ×10^−5 in data set [4] (0.5 μg oligo, 1 μg plasmid, 10 μg LSY678 extract); 0.002 ×10^−5 in data set [4] (1 μg oligo, 1 μg pK^Sm4021, no extract); 0.32 ×10^−5 in data set [4] (1 μg oligo, 1 μg plasmid, 1 μg LSY678 extract); 3.66 ×10^−5 and 2.78 ×10^−5 in data set [4] (1 μg oligo, 1 μg plasmid, 10 μg LSY678 extract); 7.601 ×10^−5 in data set [4] (1 μg oligo, 1 μg plasmid, 20 μg LSY678 extract); 0.0 ×10^−5 in data set [4] (1 μg oligo, no plasmid, 20 μg LSY678 extract). Further, the “Relative Frequency kan^r/amp^r” value in data set [4] (2.0 μg oligo, 1 μg plasmid, 10 μg LSY678 extract) was 4.005 ×10^−5. Moreover, the “Relative Correction Efficiency” value in data set [4] (10 μg extract LSY386 (Δrad52)) was 25.7 and 26.7 and 19.9; in data set [4] (10 μg extract LSY402 (Δrad51)), 5.15; in data set [4] (10 μg extract LSY407 (Δrad57)), 2.13; in data set [4] (10 μg extract LSY678 (wild type)), 1.17 and 1.08 and 1.63; in data set [4] (10 μg extract LSY814 (Δmsh2)) it was 0.79; in data set [4] (10 μg extract LSY837 (Δrad59)) it was 0.35. In addition, the “Relative Correction Efficiency” value in data set [4] (10 μg extract XS827-18C (Δrad54)) turned out to be 1.36; in data set [4] (10 μg extract YDR076W (Δrad55)) it was 1.27; in data set [4] (10 μg extract YELO37C (Δrad23)), 1.04; in data set [4] (extract LSY386•p52 (Δrad52 expressing RAD52)), 2.31; in data set [4] (extract LSY678•p52 (wild type expressing RAD52)), 0.41; in data set [4] (extracts LSY386 (2 μg) + LSY678 (8 μg)) it was 2.91. Also, the “Relative Correction Efficiency” value in data set [4] (extracts LSY386 (2 μg) + YELO37C (8 μg)) is on record as 1.85; in data set [4] (extracts LSY386 (4 μg) + LSY678 (6 μg)), 5.45; in data set [4] (extracts LSY386 (4 μg) + YELO37C (6 μg)), 3.71; in data set [4] (extracts LSY386 (6 μg) + LSY678 (4 μg)), 10.47; in data set [4] (extracts LSY386 (6 μg) + YELO37C (4 μg)), 9.22; in data set [4] (extracts LSY386 (8 μg) + LSY678 (2 μg)), 14.36. The “Relative Correction Efficiency” value in data set [4] (extracts LSY386 (8 μg) + YELO37C (2 μg)) turned out to be 16.95; in data set [4] (oligo only, no plasmid, no extract) it was 0.0. Besides, the “level of repair below wild-type levels” value in data set [4] (LSY678 extract expressing RAD52) was found to be 4 fold.

B3: βThal2: 71mer with three phosphorothioate linkages at 5′ and 3′ ends directing T to C in β-globin, SEQ ID NO: 28 (nucleic acid)
DNA: dT*dA*dA*dCdGdGdCdAdGdAdCdTdTdCdTdCdCdAdCdAdGdGdAdGdTdCdAdGdGdTdGdCdAdCdCdGdTdGdGdTdGdTdCdTdGdTdTdTdGdAdGdGdTdTdGdCdTdAdGdTdGdAdAdCdAdCdAdG*dT*dT*dG
Regarding B3, in data set [5], the “cells with corrected hygromycin also containing the edited β-globin gene” value is “approximately 10%”.

B4: Kan70T: non-specific, control oligonucleotide not complementary to the target sequence, SEQ ID NO: 11 (nucleic acid)
DNA: CATCAGAGCAGCCAATTGTCTGTTGTGCCCAGTCGTAGCCGAATAGCCTCTCCACCCAAGCGGCCGGAG
modifications: listed as DNA, chemistry not given here
In the case of B4, the “Colonies on Hygromycin” value in data set [6] (rad1 mutant) and in data set [6] (rad10 mutant) was 0 throughout.

B5: beta protein: protein expressed from the bet gene of the Red recombination system of bacteriophage lambda; expressed in yeast from pYNTβ (protein, UniProt P03698 1-261, looked up)
Recombination protein bet: MSTALATLAGKLAERVGMDSVDPQELITTLRQTAFKGDASDAQFIALLIVANQYGLNPWTKEIYAFPDKQNGIVPVVGVDGWSRIINENQQFDGMDFEQDNESCTCRIYRKDRNHPICVTEWMDECRREPFKTREGREITGPWQSHPKRMLRHKAMIQCARLAFGFAGIYDKDEAERIVENTAYTAERQPERDITPVNDETMQEINTLLIALDKTWDDDLLPLCSQIFRRDIRASSELTQAEAVKALGFLKQKAAEQKVAA
Regarding B5, the “correction efficiency per 10^5 transformants” value in data set [2] (beta protein expression, other experiments) came to 0.326.

B6: Cyc1/70T: modified single-stranded vector targeting the transcribed strand of mutant CYC1, three phosphorothioated linkages at each terminus, SEQ ID NO: 21 (nucleic acid)
DNA: dA*dG*dG*dTdGdCdTdAdCdAdCdTdTdTdTdCdAdAdGdAdCdTdAdGdAdTdGdTdCdTdAdCdAdAdTdGdCdCdAdCdAdCdCdGdTdGdGdAdAdAdAdGdGdGdTdGdGdCdCdCdAdCdAdTdAdAdG*dG*dT*dT
Turning to B6, the “No. of YPG Plate Colonies” value is on record as “lawn” in data set [2] (setting [7]); 57 in data set [2] (YMH52, 5 μg oligo); 281 in data set [2] (YMH53, 5 μg oligo); 155 in data set [2] (YMH53 with PYNMRE11 + PYNXRS2); 103 in data set [2] (YMH53 with PYNRAD52 + PYNRAD54); 43 in data set [2] (YMH54, 5 μg oligo). Moreover, the “No. of YPG Plate Colonies” value in data set [2] (YMH55, 5 μg oligo) worked out at 116. Besides, the C.E. in data set [2] (YMH52, 5 μg oligo) is on record as 0.17 ×10^−4; in data set [2] (YMH53, 5 μg oligo), 0.74 ×10^−4; in data set [2] (YMH54, 5 μg oligo), 0.14 ×10^−4; in data set [2] (YMH55, 5 μg oligo), 0.38 ×10^−4. The “Average C.E.” value in data set [2] (YMH53 with PYNMRE11 + PYNXRS2) is reported as “.263 ×10^−5”; in data set [2] (YMH53 with PYNRAD52 + PYNRAD54), “.185 ×10^−5”; in data set [2] (YMH53 with pYN132), 0.03169 ×10^−5. The results for the Fold in data set [2] (YMH53 with PYNMRE11 + PYNXRS2), in data set [2] (YMH53 with PYNRAD52 + PYNRAD54) and in data set [2] (YMH53 with pYN132) were 8.29, 5.82 and 1, respectively.
